This note sets out measurements from the DeepSol protein solubility set.

A short description of the series: soluble on expression in E. coli; label from the status in PepcDB or PDB records.
For the sequence “MAHHHHHHMQRHSRRGLLKYLSGVRVEYGGSAAKLLDSYLHQDAGAKHAANLPVSQRYFYIKNRNNDASLSSATGASQQHQTVQLRLGAAQMLSSSQHTSIDNLNEAHPLYYAQTSPSAAGLAAPLVLALKRLRIRQLTALQGALVPLLLKGKHVIAHSETGTGKSFGIALALANRIIRDQLNYRLHTVVLVPTEELALQYDKWLRHFGGCTSQVVQVAIDSIPLEAQLAKLHNIQPHVLVGTPQRVAEIVRLSPSILGEKLRRKVDCVVLDEADMIIHANVVYGRQQLSGANLVDRLFRNRREEVPAQLVAASATVDGVTAQTLNTWTRNDRTVRLTTSFVEHTIPPTIQFYFFGASRAYPLERCLLLSLQLICTQRPDARILIFTEDERVAEVCTLLTSAEVEGEMRRIAPGALSSTKVFAGALHALPRSIPSADNKESHGPDNPVSHRRVPLTTATQQAAPFSAIRGSGNVYEDVRAHQVIRQHGDVYVKNNSSLSRLNEGKLVVGVGSFNSSRGLHVNGITHVILYGACPSAACFVHCAGRTGRMGAEGDVLVLYPPSSGRQVQQVCSSLEVPFHSSRMSAVEDLLRSGEARTTESAAGAVTESASGAAADNT”, the “soluble on expression in E. coli” value is given as “not soluble”. Regarding “MAHHHHHHMQSSISQEKLQLMQKNFNLVDLNKDGKIAAEEFKTLLRLLGQTKTEKEMDEMVDKHFEDAPIGEEQQQDAAEAADKGGANEGTPSTAKQLGGQ”, the “soluble on expression in E. coli” value is “soluble”. Turning to “MAHHHHHHMQSTGGLPFYGNLYAGRVDSQNYVPPRQGGSGLLEVDKSLWDNPATRQKLQSCPYFALSDQVMFHNMDPVYLDPGLLSPEEHQLLLLFSRAYYEKWSVIHRRPPHALPRLRITYGSSKLLDEILFLLDVHPDVCEVLKKEYAVDDSTLIGMNPNLWSSAYLDPANMDHLSGRVLEFAGVPEPKRTKFFLLLDQMRRIKVHRRDLPNSEERVDVVPFCYGVTLYDFCKFLGITPYSGQLKVYDYVDLQGTARSETLKDEDSYFDYLVALFYRADVRSATLTDLADASDHTCRYTVTVEPFTTADRRVGRWF”, the “soluble on expression in E. coli” value is recorded as “soluble”. Regarding “MAHHHHHHMQTGPFAAVTRVPDHVRNMILNEIASENIWLFDRGRCEAVTVGDMRSSSFSIPMAESPPAVGCELDNNEHLLLYDLMRVRNGQVMFENDHFSRIRQNCILTAPTACDAANVSEDEDLGKLSTYIEGVRSTTRDFIKCNPWENGDVNLKFVTWVLPSQLSDVSTAERRSELLRTLSYAVYYVTSFFPPEDWYEEGTRYAMLYDAQRHTPNAKILQVPLRERAKALQQTTNAFEVLLVSDNRRHYLVPEGSRSNYLIVSGDESLLCSLEEDILVGITLRVARRAAACARLPPLRHRKLVLGDICLAKSIAMLGTSPGVLPIKEIQVFYDEESKQNFLLAMEDYMQDKDEEIQRAVINVRGRILNDDGLLRLESPSCDTLKRLRAAYEAEALL”, the “soluble on expression in E. coli” value is recorded as “not soluble”. “MAHHHHHHMRANPIERRKERETALSVRQRELEELRQRKAQLGEELGMELSALEGDNLAAAFPVIQYCGSRPKKDAKKIPVESLGSVMNQFEIAIKAISQNNRDIEQQITDLNRTIGVEAQRFTKLKRHSKELADATGVSLDPNAVQHLAGKSRDGEDCSGGLKELEETTVVLEERKALVEKEIRAARQLVKKKEEAVLAMSSALESRQEEIDQLNRLYNDIRVVDRDIKCEKETLREIISEHDIVDTKLNEAIERNVSRTRLLIEQGINEIKTEIADSVSVSRRGQERVMKAQEFRIDQLEKRLDCINKALKNNHLTRDVEAIVSHKWAAAGDALVAATPDESMYDIEAIIPPQERCHPAIYNLLLTEKERLARRISLLGIIAKEKKEVIDALACKAEALARECQQAIQELDHVASAAAYEEEMQRVEAMEYIQKQRLHYSDLFKEMWKLKTKNQGPLWRAY”: the “soluble on expression in E. coli” value was “not soluble”. For “MAHHHHHHMRCFTPRLSAAGNGVWRGFRQMYEEYALWRDRRDDERYAAVSEEGEEGITLSNRRICANPNACPRSVLLVPADCIVEAFRRERRGGVTADAVMFDLTCCRGSRGEARDNILRFLQAEEKGEKRGEDISEGQCSHADERGRYLIRVNSPEFDSANGFLDMELAALLGERIEGVLLPAVTVNTYSLVEEYIHPSHHLWALFDTPLSVVQASEICRQGHYRYAVMGSRRLAEDLHLPIGGVTYGDTYRGENNSENATPAALLGSLPLLNSSLQVLLAARAFNMNILDDAFEDASDTAGFSRDLHLSRSLGFEGKLVINPAQLASCHAAFAPSAEELSWARGVQQRMARRYATEESAGKLEAAQWRRAACLLERHREAELQGAAPTQRGGGGGVE”, the “soluble on expression in E. coli” value is given as “not soluble”. Regarding “MAHHHHHHMRNVLFNGPMIPEIDAGYNVQVNGVSVNFLKDPFCFRNVVIENAYYKNKLLYKNFNDDNVNKNITNHIKRENIVELDKEFNECIKDSLNNNHVHIKKNEPDYKLNDIKSPIYKERTKYTPKIIEVIKTNYNVPHDERVKIHKENLMYMNNIEYKKANEIVEKVILTIKNETIQKPVELANDEPNNILKPNNIFKKMLL”, the “soluble on expression in E. coli” value is listed as “not soluble”. In the case of “MAHHHHHHMRRALHAAALPSRAPLTPQRYKSYVLKFLRGQLPHDLKDCAGALGCLYGTLPDVDEYRQFVVPLQVLQQYHQLGYAKLPRPVLDPPQVDILADEVNQLANNVEHHPKSEHLYATSLADLTGGPLFYCQGQWRCAWGMHDLVYLPTLTVAASQALGNRLVRLWYDEAFMKEARTGPCVPWQQNYVRWQHTTPVNHVSIMIALDTLNKDRGAPCLIPGSHRWREGQLLPPVPYDPTQSETQQLNTIWDITNDDEQEMLADTPPATVDLRRGEALLIHPKTLFATHGNRSLDAARCCCVHYMGEATCAVQDGPLLPHTTRFRAGTRVSGPFFPVVFDPAMTEDLLMLDNKEGGAAA”, the “soluble on expression in E. coli” value was “not soluble”. As for “MAHHHHHHMSDLDKIRSKLEALKSKTEVKTDERIEIAKKNDPFNDLKVHILNVLDETRKCIREKESLQNVHGNNIEVIKRGNIIYNNMKNLDTYFLKLEEILKKQEKKKYAYSREELFDKNETFELLKRQIYECKKLSNYEHIKDTCVMDFSDFKNKQQVESKS”, the “soluble on expression in E. coli” value is given as “soluble”.

“MAHHHHHHMSGRLRLYKEKLEGYNRFYSIVKTIKMVTMAKFRQAQVRIKTRDYTLRYTEKAFSKPGQLVGDSPQAKAIYIPVMTNRGSCGALNSNVVKVIDSVASSRAYLMPLGKRGIESLSKLYPSSFRMGIVNDMHEPMHFAYATYVWENAQQLCPEADRVHVIFHRCVSAGSQKQCYYNIPSYEKWREDLADASSTENQKSRYLFANTLLNEDEQMIRDFYDFHATLAILNAVCENELSEQAARLVAVEGQLSNISTLQQKTSSLYNKTRQSSITSSLIEIISAMTSLEGNAAKGVQRTNFWEGARMK”: the “soluble on expression in E. coli” value is “not soluble”. Consider “MAHHHHHHMSHPKMKLVRRARKSIRERRMKACLKDLSSNLEKVEMRVFRQQKQKRQQQQRKGAGNHITVPPDVLRGVMNPELYHIECRLHQEACMPPPPPYEGYSQRERCDGARRRIGFVEFVTIAEMVRLGAMPGTPARVGI”, for which the “soluble on expression in E. coli” value was “not soluble”. Turning to “MAHHHHHHMSSCKDSLSLMAMWGSIARFDPKHERSFEGPEKRLEVIMRVVDGTHVSGLLAHDDDVWQKVIDAICAHIVSREFNEYIRSYVLSESSLFVMKDRVILITCGTITLLNCVPLICEAVSTVCGEVEWVSFMHKNYSFPWEQKGPHLSMAEEFKTLRSHFPSGQPFIFGPIDSDHYFLYFHSDVVQPSCSDDAQLSMTMYGLDRNQTKHWYSDKMLPTGPETAVIREATGLSEVVDDSWILHDLQYEPCGYSINAIRGSEYQTIHITPEEHCSFASYETNTCALNYSKCICGVLRVFDPERFSVIVFIDPDSAVGKSYHSGGTIGVEPEYYPNYEAHHRTVNEYTPGHWVLKVNYVKRAVGTVGTSAASGAKE”, the “soluble on expression in E. coli” value is recorded as “not soluble”.

Turning to “MAHHHHHHMSSETPRASTHDVFCAALQMLGGAQIFAQPLIQRTAVASLSPRSRNGNQASAVIAESATSRDAGTNHLPDPGIDVDAKPVDKPCCRGEQPCERTGTAPVKAMVTLCDPPARCEGVLAAQNAQRRLHHLRFFGGRFFLADGVTASESQQTSGYASTATSNAHVSDDCSSTWELKASYFQAMKETLTAVMGRRLRSQLLCDDSTADTGTVLRAPVPRGATGASTMTTSARQAALRRRMEAFTSAVVHQESILDAVAAACRARLNTVGGATAAPTPCFFFSALPQISVRQWAGSHLYKHWLVRCGTPRASLPSTATNPQKSGPHGAPMLTSPSAPRAPATALVLPLDVEAELRKYWKLHDEAAARARLEALRCNDAQAFAEHVSLLKVSALLEIMEKTEGFMRRIGLRLQFHATQAAANRGGDGARAVPTTRAAPAALAEPGIADRPGGAAGCHGSEYERFRSYVASTKNEFKLMHRVDVFVAAQPAGLDATLLPHQMDGLRFLASLDANHINGILADEMGVGKTIQTLAFLLYLKNRRGETGETGEGSGGRVAPPRVGSRLPHLVLAPLSVVREWREACEQFVPSALHVAMYQELADPVHEAAAYDLVLLPVHAIRYVGAEAARIQWHYIVVDEAHKAVANLSTITAQRILRPLVFAPPGADWNAAQQRLAGALVAAALSESGGVHRQ”, the “soluble on expression in E. coli” value is listed as “not soluble”.

Consider “MAHHHHHHMSSPFFGEQRKTRHNRSCSSCDSLPRYAASPPCHPQYAKVDRAAPSVSSPTFSSVPPSPKFPALCMHAMSHTNSTVPSSKLPFSNSVTGNGAALIGTLASFDSEAPRGRPASVAEDGAASGSSSGLSRAAVLMSGRGDASPPFSPQPSGSVLAVFCPLTSKAWQSGTLRDGIAFDVDTTSKVSTISPQTGLQSPLLFSSGWSQQSVSAAAQGTPPSFMGTPGQSLISAGAEGDDAEDTPHSCGAMYSPNHSVSLLPAPKVFVSVYPVQSPEPFATKFTGSPVFEVSLTTPPSIRAPQTGAARGAGATPAPSSRLPSESLEQYSLLRSPILHSLTPLSISPSAPLSPGFGCITGTEPMQSRLSRHRLATSAGSEQLPVRTSNDMRSRNAAVASPPPAAVPSVNSNHESLSDRLVSPARRSYRCPLPSSNEASLSSFFAVDDAGLHANLSMTQASEEDAAHRAASATLPRVCSSKDTEAEEGVAAALAPDTTDDPFEAFWDISPAAQWGGSVTEMLPRITTSSAPFETGSASRSVTAFASGTHEKDSHSSEEFNQNNRLSCVSMERHRNTILHRPSAAQQRNTILHRPSVVQQRNSVNRSVDTQRTTSKTMTLQQRQRRFSLQQEDSIEIKRRSYA”, for which the “soluble on expression in E. coli” value is “not soluble”. The same measure for “MAHHHHHHMSSSVVIVGDSICGGDGDQKLSTSHDEVYLRGFNTFAGNNPSDRALLHEGAGEVVAAISGHIEVTERVISVKGLLPRYQPEIGDVVVGRIVEVSGNKWHVDVNSTQTAIMLLSSVTEPGGILRRRGRGDELGMRQIFDQDDLVAAEVQRISPDGVMSLHTRAADKYGRLSGLGILVSVRPSLVKRAKHQFVELADYSTQLIIGMNGNIWICSVQPSTSDAEETEHATDARQNVARVANCIKALGAAQVQIHPASIEASVAASLDAGLSVFDVSLPKNRDALVARVADMVGMQHRRPTGGGACARTLV”: “not soluble”; for “MAHHHHHHMSSVSSPPLTDAEVRELSTAEIRLNLERCSRLLSQASLLRRLRDGGEGIRHRSELFAKELERRHTVEAANGDASTRLASSTLTEALKRENEAAILSESTHNATDAAREIAQKYRDQRIDVEATVRRIYEGILSESEIQRILHSVPPRFFLTYAETCEMERQLARDARKVELQKLAAQAARLSATPQ”: “soluble”. The same measure for “MAHHHHHHMSTGHLRSVQLCRGQLRSLSHSSSMVGLRDFCNLVDECIKDIGVLKVNADDARILLHKRQQTFPSRHCDGVLAQTQVLYAQVLLKNLAEPVNRLIVRPVAVKNEGSEGLGVLHKPYDGAQSASPEIIAAQLELLQRAHRPTALNVLQDCRVHAATLLRAVRAVQLAQVRFSPHEKCTNTHGPKKKKK”: “not soluble”.
